2 molecules from US20220119490A1 (Genentech, published 2022) can be followed below.

For test [1], the target named is T1, PTPRZ1 expressed on cells (human, UniProt P23471 25-2315).
T1 construct: whole, on cells
Nature of the test: cell surface interaction assay: streptavidin-tetramerized biotinylated ECD on transfected cells, immunofluorescence. An excerpt:
FIG. 3H is a schematic showing the design of the cell surface interaction assay.

Test [2] concerns the target T2, PTPRD ΔG61 ΔE106 variant extracellular domain (human, UniProt P23468 21-1265).
T2 construct: extracellular domain; meaning of the deletion notation not explained; also called IG1 mutant
T2 sequence (looked up): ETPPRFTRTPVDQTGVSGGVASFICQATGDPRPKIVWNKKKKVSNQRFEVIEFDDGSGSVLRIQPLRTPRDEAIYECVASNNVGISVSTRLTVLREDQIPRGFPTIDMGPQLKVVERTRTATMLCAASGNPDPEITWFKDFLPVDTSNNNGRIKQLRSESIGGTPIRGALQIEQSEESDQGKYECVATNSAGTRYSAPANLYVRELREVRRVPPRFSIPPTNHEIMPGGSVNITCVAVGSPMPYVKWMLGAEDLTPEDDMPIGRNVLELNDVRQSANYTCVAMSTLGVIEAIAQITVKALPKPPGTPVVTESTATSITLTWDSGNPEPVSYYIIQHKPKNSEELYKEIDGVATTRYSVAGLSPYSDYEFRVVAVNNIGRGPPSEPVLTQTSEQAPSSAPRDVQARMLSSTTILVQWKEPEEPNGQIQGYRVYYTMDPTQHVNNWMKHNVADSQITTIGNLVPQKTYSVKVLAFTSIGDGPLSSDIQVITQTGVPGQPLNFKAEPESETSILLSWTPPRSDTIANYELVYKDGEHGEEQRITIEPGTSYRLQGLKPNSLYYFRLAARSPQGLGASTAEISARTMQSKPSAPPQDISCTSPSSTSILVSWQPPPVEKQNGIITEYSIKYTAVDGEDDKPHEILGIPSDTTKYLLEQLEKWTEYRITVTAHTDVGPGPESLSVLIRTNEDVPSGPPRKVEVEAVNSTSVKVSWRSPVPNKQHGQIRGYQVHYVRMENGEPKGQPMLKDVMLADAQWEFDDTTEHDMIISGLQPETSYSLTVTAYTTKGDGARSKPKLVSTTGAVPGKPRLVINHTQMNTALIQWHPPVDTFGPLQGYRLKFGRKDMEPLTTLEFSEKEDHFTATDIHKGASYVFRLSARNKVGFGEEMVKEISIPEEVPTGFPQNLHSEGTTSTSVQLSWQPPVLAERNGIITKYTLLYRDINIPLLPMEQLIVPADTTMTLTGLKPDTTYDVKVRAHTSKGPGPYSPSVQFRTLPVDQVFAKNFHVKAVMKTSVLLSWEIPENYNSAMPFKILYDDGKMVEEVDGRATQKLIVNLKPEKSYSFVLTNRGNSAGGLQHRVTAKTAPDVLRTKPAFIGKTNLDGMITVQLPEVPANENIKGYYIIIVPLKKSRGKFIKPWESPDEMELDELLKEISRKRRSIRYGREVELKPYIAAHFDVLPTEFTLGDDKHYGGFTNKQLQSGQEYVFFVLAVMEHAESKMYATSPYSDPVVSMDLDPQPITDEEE
Put plainly: extracellular interaction screen: pentameric PTPRD variant ECD on ECD-Fc prey (FIG. 5L).

Test [3] deals with T3, PTPRD R561Q variant extracellular domain (human, UniProt P23468 21-1265).
T3 construct: extracellular domain; also called FN3 mutant
T3 sequence (looked up): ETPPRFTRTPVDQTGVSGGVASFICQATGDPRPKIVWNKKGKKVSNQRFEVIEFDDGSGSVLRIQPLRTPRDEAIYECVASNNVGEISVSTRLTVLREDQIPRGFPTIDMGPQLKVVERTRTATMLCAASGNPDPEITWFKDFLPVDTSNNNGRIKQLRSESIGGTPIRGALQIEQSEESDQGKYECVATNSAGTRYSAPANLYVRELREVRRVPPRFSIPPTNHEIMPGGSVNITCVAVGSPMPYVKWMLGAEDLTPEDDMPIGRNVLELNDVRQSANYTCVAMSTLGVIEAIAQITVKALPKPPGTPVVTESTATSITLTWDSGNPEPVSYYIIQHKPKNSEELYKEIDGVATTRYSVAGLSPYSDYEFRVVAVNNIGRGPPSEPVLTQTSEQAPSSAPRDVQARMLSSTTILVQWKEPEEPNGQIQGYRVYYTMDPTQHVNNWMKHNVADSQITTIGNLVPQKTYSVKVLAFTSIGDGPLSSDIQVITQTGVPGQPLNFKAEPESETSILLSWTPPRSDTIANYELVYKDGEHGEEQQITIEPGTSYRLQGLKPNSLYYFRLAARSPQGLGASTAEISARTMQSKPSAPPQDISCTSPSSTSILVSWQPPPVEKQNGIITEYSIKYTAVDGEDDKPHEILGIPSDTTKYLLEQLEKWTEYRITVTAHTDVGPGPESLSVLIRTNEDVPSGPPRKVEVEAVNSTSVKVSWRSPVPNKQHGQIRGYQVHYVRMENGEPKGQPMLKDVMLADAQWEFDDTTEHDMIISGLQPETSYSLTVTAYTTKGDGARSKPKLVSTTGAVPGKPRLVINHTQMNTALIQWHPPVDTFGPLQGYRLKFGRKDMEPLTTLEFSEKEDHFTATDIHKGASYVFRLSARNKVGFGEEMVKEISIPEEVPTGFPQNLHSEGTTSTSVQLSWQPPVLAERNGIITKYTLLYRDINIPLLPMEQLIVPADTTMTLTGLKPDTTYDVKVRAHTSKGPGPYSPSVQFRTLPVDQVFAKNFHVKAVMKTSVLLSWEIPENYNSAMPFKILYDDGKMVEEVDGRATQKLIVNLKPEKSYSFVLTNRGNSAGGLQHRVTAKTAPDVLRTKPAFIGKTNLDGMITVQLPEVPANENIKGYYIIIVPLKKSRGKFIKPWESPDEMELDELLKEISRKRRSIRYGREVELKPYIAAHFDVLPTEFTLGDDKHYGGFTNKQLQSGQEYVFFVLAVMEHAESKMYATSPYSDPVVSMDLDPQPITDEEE
The description is as above.

T1 sequence (P23471 25-2315): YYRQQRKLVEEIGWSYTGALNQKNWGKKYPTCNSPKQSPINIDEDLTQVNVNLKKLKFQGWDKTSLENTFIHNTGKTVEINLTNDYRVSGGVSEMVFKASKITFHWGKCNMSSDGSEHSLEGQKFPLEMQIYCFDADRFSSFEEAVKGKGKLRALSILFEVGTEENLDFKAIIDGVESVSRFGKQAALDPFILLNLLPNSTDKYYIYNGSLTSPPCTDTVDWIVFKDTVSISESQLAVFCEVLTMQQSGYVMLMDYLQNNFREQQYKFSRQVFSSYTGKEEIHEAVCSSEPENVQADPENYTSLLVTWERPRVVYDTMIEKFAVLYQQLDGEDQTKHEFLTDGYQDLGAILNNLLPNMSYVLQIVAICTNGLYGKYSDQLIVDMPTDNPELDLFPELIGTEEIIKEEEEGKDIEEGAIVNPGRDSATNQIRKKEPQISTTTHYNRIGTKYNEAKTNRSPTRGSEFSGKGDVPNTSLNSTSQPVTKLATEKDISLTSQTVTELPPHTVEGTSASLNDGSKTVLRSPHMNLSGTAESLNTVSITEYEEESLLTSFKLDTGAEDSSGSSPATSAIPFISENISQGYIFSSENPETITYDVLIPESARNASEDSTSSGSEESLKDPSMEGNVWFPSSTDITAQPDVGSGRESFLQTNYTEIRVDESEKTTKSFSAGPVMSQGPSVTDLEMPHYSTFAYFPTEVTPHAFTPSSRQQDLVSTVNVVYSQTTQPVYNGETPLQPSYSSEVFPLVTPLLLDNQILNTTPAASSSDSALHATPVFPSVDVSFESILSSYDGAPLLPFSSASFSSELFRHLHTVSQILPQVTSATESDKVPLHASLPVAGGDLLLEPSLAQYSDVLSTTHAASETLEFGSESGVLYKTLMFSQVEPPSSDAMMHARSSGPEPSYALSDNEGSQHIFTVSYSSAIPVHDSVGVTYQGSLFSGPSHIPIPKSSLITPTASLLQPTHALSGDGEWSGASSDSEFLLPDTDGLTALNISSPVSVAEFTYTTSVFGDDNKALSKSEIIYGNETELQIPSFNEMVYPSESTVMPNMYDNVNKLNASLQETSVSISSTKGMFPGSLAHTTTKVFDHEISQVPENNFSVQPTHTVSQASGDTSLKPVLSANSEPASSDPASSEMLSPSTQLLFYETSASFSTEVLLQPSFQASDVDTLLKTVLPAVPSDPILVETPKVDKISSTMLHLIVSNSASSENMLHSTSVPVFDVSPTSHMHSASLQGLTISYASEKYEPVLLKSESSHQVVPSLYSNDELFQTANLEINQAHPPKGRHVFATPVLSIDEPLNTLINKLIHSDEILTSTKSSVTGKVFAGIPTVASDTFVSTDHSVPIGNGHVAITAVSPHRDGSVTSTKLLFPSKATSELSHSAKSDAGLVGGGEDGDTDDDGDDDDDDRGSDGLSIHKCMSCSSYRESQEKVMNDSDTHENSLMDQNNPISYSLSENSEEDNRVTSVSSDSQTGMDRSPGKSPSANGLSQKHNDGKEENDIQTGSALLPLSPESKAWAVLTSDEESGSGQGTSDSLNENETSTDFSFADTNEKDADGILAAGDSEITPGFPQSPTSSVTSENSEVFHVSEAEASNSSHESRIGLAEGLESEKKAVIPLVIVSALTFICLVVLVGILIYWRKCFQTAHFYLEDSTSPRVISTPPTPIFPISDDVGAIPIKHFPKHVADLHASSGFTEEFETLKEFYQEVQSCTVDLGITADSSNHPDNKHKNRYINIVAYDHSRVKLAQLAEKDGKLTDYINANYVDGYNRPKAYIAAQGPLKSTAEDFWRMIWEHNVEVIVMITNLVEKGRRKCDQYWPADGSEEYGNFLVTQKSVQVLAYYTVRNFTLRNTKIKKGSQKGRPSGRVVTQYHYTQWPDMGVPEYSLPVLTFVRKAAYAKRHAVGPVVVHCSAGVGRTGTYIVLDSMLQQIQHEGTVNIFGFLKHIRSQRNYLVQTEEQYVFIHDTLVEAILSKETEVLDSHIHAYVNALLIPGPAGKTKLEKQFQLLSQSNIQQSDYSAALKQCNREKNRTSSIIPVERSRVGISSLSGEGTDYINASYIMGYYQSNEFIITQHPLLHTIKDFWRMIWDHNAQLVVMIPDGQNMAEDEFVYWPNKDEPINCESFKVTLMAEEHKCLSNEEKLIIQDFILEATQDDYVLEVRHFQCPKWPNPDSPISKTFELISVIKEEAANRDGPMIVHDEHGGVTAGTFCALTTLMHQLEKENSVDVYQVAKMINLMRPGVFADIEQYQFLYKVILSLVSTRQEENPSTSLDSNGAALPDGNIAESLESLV

B1: CNTN1 extracellular domain (receptor, human, UniProt Q12860 21-993, looked up)
chain: EFTWYRRYGHGVSEEDKGFGPIFEEQPINTIYPEESLEGKVSLNCRARASPFPVYKWRMNNGDVDLTSDRYSMVGGNLVINNPDKQKDAGIYYCLASNNYGMVRSTEATLSFGYLDPFPPEERPEVRVKEGKGMVLLCDPPYHFPDDLSYRWLLNEFPVFITMDKRRFVSQTNGNLYIANVEASDKGNYSCFVSSPSITKSVFSKFIPLIPIPERTTKPYPADIVVQFKDVYALMGQNVTLECFALGNPVPDIRWRKVLEPMPSTAEISTSGAVLKIFNIQLEDEGIYECEAENIRGKDKHQARIYVQAFPEWVEHINDTEVDIGSDLYWPCVATGKPIPTIRWLKNGYAYHKGELRLYDVTFENAGMYQCIAENTYGAIYANAELKILALAPTFEMNPMKKKILAAKGGRVIIECKPKAAPKPKFSWSKGTEWLVNSSRILIWEDGSLEINNITRNDGGIYTCFAENNRGKANSTGTLVITDPTRIILAPINADITVGENATMQCAASFDPALDLTFVWSFNGYVIDFNKENIHYQRNFMLDSNGELLIRNAQLKHAGRYTCTAQTIVDNSSASADLVVRGPPGPPGGLRIEDIRATSVALTWSRGSDNHSPISKYTIQTKTILSDDWKDAKTDPPIIEGNMEAARAVDLIPWMEYEFRVVATNTLGRGEPSIPSNRIKTDGAAPNVAPSDVGGGGGRNRELTITWAPLSREYHYGNNFGYIVAFKPFDGEEWKKVTVTNPDTGRYVHKDETMSPSTAFQVKVKAFNNKGDGPYSLVAVINSAQDAPSEAPTEVGVKVLSSSEISVHWEHVLEKIVESYQIRYWAAHDKEEAANRVQVTSQEYSARLENLLPDTQYFIEVGACNSAGCGPPSDMIEAFTKKAPPSQPPRIISSVRSGSRYIITWDHVVALSNESTVTGYKVLYRPDGQHDGKLYSTHKHSIEVPIPRDGEYVVEVRAHSDGGDGVVSQVKIS
notes: extracellular domain; Streptavidin tetramer in cell assays; ECD-Fc in SPR; also called contactin 1
Regarding B1, in test [1], the binding result is “binds”.

B2: LRRC4B extracellular domain (receptor, human, UniProt Q9NT99 36-576, looked up)
chain: AGGGGVAVTSAAGGGSPPATSCPVACSCSNQASRVICTRRDLAEVPASIPVNTRYLNLQENGIQVIRTDTFKHLRHLEILQLSKNLVRKIEVGAFNGLPSLNTLELFDNRLTTVPTQAFEYLSKLRELWLRNNPIESIPSYAFNRVPSLRRLDLGELKRLEYISEAAFEGLVNLRYLNLGMCNLKDIPNLTALVRLEELELSGNRLDLIRPGSFQGLTSLRKLWLMHAQVATIERNAFDDLKSLEELNLSHNNLMSLPHDLFTPLHRLERVHLNHNPWHCNCDVLWLSWWLKETVPSNTTCCARCHAPAGLKGRYIGELDQSHFTCYAPVIVEPPTDLNVTEGMAAELKCRTGTSMTSVNWLTPNGTLMTHGSYRVRISVLHDGTLNFTNVTVQDTGQYTCMVTNSAGNTTASATLNVSAVDPVAAGGTGSGGGGPGGSGGVGGGSGGYTYFTTVTVETLETQPGEEALQPRGTEKEPPGPTTDGVWGGGRPGDAAGPASSSTTAPAPRSSRPTEKAFTVPITDVTENALKDLDDVMKTTK
notes: extracellular domain; ECD-Fc prey; also called NGL-3; netrin-G ligand-3
Turning to B2, the binding result in test [2] and in test [3] was “no binding” in each case.
